This is an account of results in patent US20220259315A1 (MABQUEST, published 2022).

Sequences and labels used below:
T1: PD-1 M14
T1 PD-1 mutant: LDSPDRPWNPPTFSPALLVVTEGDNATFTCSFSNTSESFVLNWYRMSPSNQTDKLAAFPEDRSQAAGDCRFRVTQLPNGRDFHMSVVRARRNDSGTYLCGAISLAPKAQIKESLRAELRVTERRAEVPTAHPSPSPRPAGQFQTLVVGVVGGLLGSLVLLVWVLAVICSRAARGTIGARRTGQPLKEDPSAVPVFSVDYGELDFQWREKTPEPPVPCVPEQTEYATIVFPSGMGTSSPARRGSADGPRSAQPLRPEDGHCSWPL

T2: monkey Fc-PD-1 protein (monkey, UniProt Q15116 25-170 (human entry))
T2 construct: not shown: Fc part not described
T2 chain: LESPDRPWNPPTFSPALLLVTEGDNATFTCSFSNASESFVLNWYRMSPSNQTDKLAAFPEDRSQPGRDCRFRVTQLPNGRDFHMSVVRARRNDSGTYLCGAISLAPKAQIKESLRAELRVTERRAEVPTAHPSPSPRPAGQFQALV

B1: 137F2 (antibody, V domains shown)
VH: QVQLQQPGAELVRPGTSVKMSCKAAGYTFTNYWIGWIKQRPGHGLEWIGDIYPGGGYTNYNEKFKGKATLTADTSSSTAYMQVSSLTSEDTGIYYCARGYDFVLDRWGQGTSVTVSS
VL: DIVMSQSPSSLAVSTGEKVTMTCKSSQSLFNSETQKNYLAWYQQKPGQPPKLLIFWASTRESGVPDRFLGSGSGTDFTLTISSVQAEDLAVYYCKQSYTLRTFGGGTKLEIK
notes: also called mouse 137F2A11
B2: A35775 (Fab, V domains shown)
VH: EVQLVQSGAEVKKPGESLKISCKGSGYSFTNFYIHWVRQAPGQRLEWMGSIYPNYGDTAYNQKFKDRFVFSLDTSVSTAYLQISSLKAEDTAVYYCARGYSYAMDYWGQGTTVTVSS
VL: DIQMTQSPSSVSASVGDRVTITCSASQGISGDLNWYQQKPGQAPRLLIYHTSSLHSGVPSRFSGSGSGTDFTLTISSLQPEDFATYYCQYYSKDLLTFGGGTKLEIK
notes: humanized Fab clone of 135C12; also called humanized antibody A35775
B3: A35774 (Fab, V domains shown)
VH: B2 VH
VL: B2 VL with Q42K, R45K
notes: humanized Fab clone of 135C12; also called humanized antibody A35774
B4: A36443 (Fab, V domains shown)
VH: EVQLVQSGAEVKKPGATVKISCKVSGYTFTNFYIHWVRQARGQRLEWIGSIYPNYGDTAYNQKFKDRVTITADKSTSTAYMELSSLRSEDTAVYYCARGYSYAMDYWGQGTTVTVSS
VL: B2 VL with D70E, S77R, Q79E, T85V
notes: humanized Fab clone of 135C12; also called humanized antibody A36443
B5: A35789 (Fab, V domains shown)
VH: B4 VH with A16E, T17S, V18L, V24G, T28S, A40M, R41P, Q43K, R44G, I48M
VL: B2 VL with V58I, S60A, S77R, Q79E, T85V
notes: humanized Fab clone of 135C12; also called humanized antibody A35789
B6: A35777 (Fab, V domains shown)
VH: B4 VH with R41P, Q43K, R44G, I48M
VL: B2 VL with S10T, V11L
notes: humanized Fab clone of 135C12; also called humanized antibody A35777
B7: A35783 (Fab, V domains shown)
VH: B2 VH with P41R, M48I
VL: B2 VL with V11L, Q42K, A43T, R45K
notes: humanized Fab clone of 135C12; also called humanized antibody A35783
B8: A36437 (Fab, V domains shown)
VH: B2 VH with A40M, Q43K, R44G
VL: B2 VL with S10T, V11L, V58I, S60A, T85V
notes: humanized Fab clone of 135C12; also called humanized antibody A36437
B9: A36448 (Fab, V domains shown)
VH: B2 VH with A40M, Q43K, R44G
VL: B2 VL with S10T, V11L, Q42K, A43T, R45K
notes: humanized Fab clone of 135C12; also called humanized antibody A36448
B10: A35796 (Fab, V domains shown)
VH: QMQLVQSGPEVKKPGTSVKVSCKASGFTFTNYWIGWVRQAPGQALEWMGDIYPGGGYTNYNEKFKGRVTITADKSTSTAYMELSSLRSEDTAVYYCARGYDFVLDRWGQGTTVTVSS
VL: DVVMTQSPAFLSVTPGEKVTITCKSSQSLFNSETQKNYLAWYQQKPGQPPKLLIYWASTRESGVPSRFSGSGSGTDFTLTISSLQPEDFATYYCKQSYTLRTFGGGTKLEIK
notes: humanized Fab clone of 137F2; also called humanized antibody A35796
B11: A35797 (Fab, V domains shown)
VH: EVQLVQSGAEVKKHGESLKISCKGSGYSFTNYWIGWVRQATGQGLEWMGDIYPGGGYTNYNEKFKGRVTITADKSTSTAYMELSSLRSEDTAVYYCARGYDFVLDRWGQGTTVTVSS
VL: B10 VL with V2I, V3Q, A9S, F10S, V13A, T14S, P15V, E17D, K18R
notes: humanized Fab clone of 137F2; also called humanized antibody A35797
B12: A35793 (Fab, V domains shown)
VH: B10 VH
VL: B10 VL with L79F, Q85E, P86A, F89A
notes: humanized Fab clone of 137F2; also called humanized antibody A35793
B13: A35818 (Fab, V domains shown)
VH: B10 VH
VL: B10 VL with P49A, K51R, L79F, Q85E, P86A, F89A
notes: humanized Fab clone of 137F2; also called humanized antibody A35818
B14: A35805 (Fab, V domains shown)
VH: B10 VH with M2V, P9S, V11L, T16A, F27Y, Q43K, A44G
VL: B10 VL with L79F, Q85E, P86A, F89A
notes: humanized Fab clone of 137F2; also called humanized antibody A35805
B15: A35795 (Fab, V domains shown)
VH: B10 VH with M2V, P9A, T16A, F27Y, A44G
VL: B10 VL with P49A, K51R
notes: humanized Fab clone of 137F2; also called humanized antibody A35795
B16: A35799 (Fab, V domains shown)
VH: B10 VH with P9A, P14T, T16S, F27Y, A40M, Q43K, A44G
VL: B10 VL
notes: humanized Fab clone of 137F2; also called humanized antibody A35799

Residue numbers refer to the chain shown, from its start.

One test concerns the target T1, PD-1 M14. The test is described as follows: flow cytometry, HeLa cells transiently transfected with PD-1 M14, PE-labeled anti-mouse IgG secondary Ab. A general note: Flow cytometry measures light scatter and fluorescence of single cells or particles in a stream.
Consider B1, for which the binding result is listed as “binds”.

In the next test the target is T2, monkey Fc-PD-1 protein. The test is described as follows: Biacore, monkey Fc-PD-1. On the technique in general: SPR reads the build-up and loss of mass on a sensor chip optically.
In the case of B1, binding was characterised by a dissociation constant (Kd) of 2.22 nM; the koff (usually the rate constant with which the complex falls apart) was found to be 0.000305 s⁻¹; the association rate constant (kon) (as a rule, the rate constant with which the complex forms) amounted to 138000 M⁻¹ s⁻¹.

A further test addresses T2, monkey Fc-PD-1 protein. The test is described as follows: Biacore, Fab, monkey Fc-PD-1.
B2: the affinity, expressed as Kd, was 5.73 nM; the koff amounted to 0.000347 s⁻¹; the kon was 60500 M⁻¹ s⁻¹.
Consider B3, for which the affinity, expressed as Kd, was 2.79 nM; the koff was 0.000194 s⁻¹; the kon is 69300 M⁻¹ s⁻¹.
Taken in the same sequence, the figures for B4 were 6.16 nM, 0.000585 s⁻¹ and 94900 M⁻¹ s⁻¹.
The like results for B5 were, in that order, 6.19 nM, 0.000413 s⁻¹ and 66700 M⁻¹ s⁻¹.
The like results for B6 were, in that order, 5 nM, 0.000575 s⁻¹ and 115000 M⁻¹ s⁻¹.
Turning to B7, the Kd (usually a measure of binding affinity in units of concentration) is 1.9 nM, the koff worked out at 0.0008 s⁻¹ and the kon stood at 421000 M⁻¹ s⁻¹.
Take B8: the Kd is 6.07 nM, the koff stood at 0.000368 s⁻¹ and the kon worked out at 60700 M⁻¹ s⁻¹.

The target in the next test is T3, recombinant human Fc-PD-1 protein (human, UniProt Q15116 25-170).
T3 construct: may be the same protein as the PD-1 Fc fusion of the Luminex assays; also called recombinant human PD-1 in an Fc fusion construct; not shown: Fc part not described
T3 sequence (Q15116 25-170): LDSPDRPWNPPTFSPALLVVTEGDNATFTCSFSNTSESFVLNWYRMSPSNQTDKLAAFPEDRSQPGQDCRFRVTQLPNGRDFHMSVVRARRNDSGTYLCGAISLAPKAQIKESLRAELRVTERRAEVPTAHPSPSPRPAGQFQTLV
The test is described as follows: Biacore, Fab, human Fc-PD-1.
As to B2, the equilibrium dissociation constant (Kd) was found to be 2.54 nM, the koff is 0.000203 s⁻¹ and the kon was 80200 M⁻¹ s⁻¹.
Taken in the same sequence, the figures for B3 were 2.61 nM, 0.000211 s⁻¹ and 80900 M⁻¹ s⁻¹.
For the molecule B4, the Kd amounted to 3.02 nM, the koff is 0.000215 s⁻¹ and the kon was 71200 M⁻¹ s⁻¹.
The like results for B5 were, in that order, 4.17 nM, 0.000293 s⁻¹ and 70100 M⁻¹ s⁻¹.
Taken in the same sequence, the figures for B6 were 5.13 nM, 0.000352 s⁻¹ and 68600 M⁻¹ s⁻¹.
The like results for B7 were, in that order, 2.55 nM, 0.000196 s⁻¹ and 76800 M⁻¹ s⁻¹.
Consider B9, for which the Kd amounted to 4.31 nM, the koff is 0.000386 s⁻¹ and the kon was found to be 89600 M⁻¹ s⁻¹.
Taken in the same sequence, the figures for B8 were 4.46 nM, 0.000317 s⁻¹ and 71000 M⁻¹ s⁻¹.

For the next test, the target named is T2, monkey Fc-PD-1 protein. Briefly: Biacore, Fab, monkey Fc-PD-1. The source holds these as a separate data set.
In the case of B10, the Kd was 1.03 nM, the koff was 9.81e-05 s⁻¹ and the kon was determined as 95300 M⁻¹ s⁻¹.
In turn, B11 registered a Kd of 1.13 nM, a koff of 0.000106 s⁻¹ and a kon of 93700 M⁻¹ s⁻¹.
Taken in the same sequence, the figures for B12 were 1.13 nM, 0.000105 s⁻¹ and 93200 M⁻¹ s⁻¹.
Taken in the same sequence, the figures for B13 were 1.27 nM, 0.000116 s⁻¹ and 91400 M⁻¹ s⁻¹.
Taken in the same sequence, the figures for B14 were 1.08 nM, 9.49e-05 s⁻¹ and 88200 M⁻¹ s⁻¹.
B15: the Kd turned out to be 1.64 nM, the koff stood at 0.000152 s⁻¹ and the kon turned out to be 92500 M⁻¹ s⁻¹.
B16 displayed a Kd of 1.88 nM, a koff of 0.000169 s⁻¹ and a kon of 89700 M⁻¹ s⁻¹.

In a further test the target is T3, recombinant human Fc-PD-1 protein. Briefly: Biacore, Fab, human Fc-PD-1. The source holds these as a separate data set.
Take B10: the Kd came out at 1.18 nM, the koff came to 0.000123 s⁻¹ and the kon was determined as 104000 M⁻¹ s⁻¹.
Taken in the same sequence, the figures for B11 were 0.802 nM, 8.02e-05 s⁻¹ and 100000 M⁻¹ s⁻¹.
The like results for B12 were, in that order, 0.912 nM, 9.49e-05 s⁻¹ and 104000 M⁻¹ s⁻¹.
As to B13, the Kd came out at 1.06 nM, the dissociation rate constant (koff) came out at 0.000104 s⁻¹ and the kon was 98800 M⁻¹ s⁻¹.
Taken in the same sequence, the figures for B14 were 0.937 nM, 8.78e-05 s⁻¹ and 93700 M⁻¹ s⁻¹.
Taken in the same sequence, the figures for B15 were 0.797 nM, 8.24e-05 s⁻¹ and 103000 M⁻¹ s⁻¹.
For B16, the Kd was determined as 0.734 nM, the koff is 7.43e-05 s⁻¹ and the kon turned out to be 101000 M⁻¹ s⁻¹.
